In US20100048482A1, “COMPOSITIONS AND METHODS FOR MODULATING EPSILON PROTEIN KINASE C-MEDIATED CYTOPROTECTION” (Board of Trustees of the Leland Stanford Junior University, priority 2008, published 2010):
Entries after “also recorded” stand apart in the source; their conditions may differ. Ends that are not written are not given here.

Columns and labels:
[1] = tested on: Langendorff perfused rat heart; assay: Ex vivo Langendorff perfused rat heart ischemia-reperfusion, creatine phosphokinase (CPK) release; conditions: 1 μM TAT-conjugated peptide; for effect on IR-induced CPK release / IR injury: ex vivo IR
Procedure: In accordance with a well-established ex vivo rat heart model for ischemia-reperfusion (see, e.g., U.S. Publication Nos. 20080167247, 20080153926, 20070299012, and 20060293237, which are herein incorporated by reference) and the method described in Example 1, hearts were removed from animals (rats) and subjected to a normoxia or an IR protocol, both depicted in FIG. 1A. The normoxia regimen comprised exposing hearts to 70 minutes of a normal oxygen state. The IR (ischemia/reperfusion) regimens comprised subjecting hearts to 20 minutes of normoxia, followed by 35 minutes of ischemia, followed by 15 minutes of reperfusion. […] The amount of necrotic cell death was then determined by measuring the release of creatine phosphokinase (CPK) into the buffer perfusate during reperfusion, which served as an indicator of ischemic damage.
(§1) Rat hearts (Wistar, 250-300 g) were excised and cannulated on a Langendorff apparatus via the aorta. Briefly, retrograde perfusion was carried out with a constant coronary flow rate of 10 ml/min with oxygenated Krebs-Henseleit buffer containing 120 mM NaCl, 5,8 mM KCl, 25 mM NaHCO3, […], 1.2 mM MgSO4, 1.2 mM CaCl2, and 10 mM dextrose, pH 7.4 at 37° C. After a 20 min equilibration period, hearts were subjected to a 35 min of no-flow, global ischemia followed by 15 min of reperfusion. Control hearts were perfused with normoxic Krebs buffer and were time-matched for the experimental period. […] At the end of the 15 mins reperfusion period, hearts were rapidly transferred to ice-cold homogenization buffer and subcellular fractions separated by differential centrifugation as described below.
Necrotic damage was determined by measurement of the release of the cardiac myocyte cytosolic enzyme, creatine phosphokinase (CPK), into the effluent (FIG. 1B). The levels are expressed in arbitrary CPK units.
Isolated rat hearts were perfused with oxygenated Krebs-Henseleit solution comprised of NaCl ([…]); KCl ([…]); NaHCO3 ([…]); NaH2O4 ([…]); MgSO4 (1.2 nmol/L); CaCl2 (1.0 nmol/L); and dextrose (10 nmol/L), pH 7.4 at 37 C. After a 10 minute equilibration period, the hearts were treated with the ψεHSP90 peptide or control buffer solution. As depicted in FIG. 5A, Perfusion was maintained at a constant flow of 10 mL/min with Krebs-Henseleit solution containing 1 μM of the appropriate peptide. The Langendorff method employs retrograde flow […] and into the coronary arteries, bypassing the pulmonary arteries. To induce global ischemia, flow was interrupted for 35 minutes. After the ischemic event, the hearts were reperfused with Krebs-Henseleit solution for 15 minutes.
During reperfusion, ischemia-induced cell damage was determined by measuring the activity of creatine phosphokinase (CPK) in the coronary perfusate, carried out using a standard assay kit (Equal Diagnostics, CT, USA). The ψεHSP90 peptide was perfused in Langendorf mode for 10 minutes before and 10 minutes after the ischemic period (1 micromolar) and myocardial injury was assayed by the release of CPK into the effluent during reperfusion (FIG. 5B). Similar to the previous results, hearts that were subjected to IR had high levels of CPK in the effluent; however, perfusion with ψεHSP90 peptide decreased CPK release by 47% (n4; p<0.05; FIG. 5B). Translocation of εPKC and the related isoform δPKC to the mitochondria and plasma membrane was determined by western blotting using εPKC and δPKC antibodies (Santa Cruz Biotechnology) (FIG. 5C). […] Physical interaction between PKCε and HSP90 was determined by co-immunoprecipitation of PKCε and HSP90 in the mitochondrial fraction in hearts exposed to normoxia or IR in the absence or presence of 1 μM ψεHSP90 (FIG. 5D).

εPKC = biological target: T1, εPKC (Rattus norvegicus, UniProt P09216); assay: IR-induced mitochondrial translocation of εPKC (western blot of heart mitochondrial fraction)
T1 construct: Rat heart ventricles were removed from the cannula and homogenized; from tissue; host or cells: Wistar rat heart ventricle; mitochondrial, IMM or plasma membrane fractions
T1 sequence (P09216 1-737): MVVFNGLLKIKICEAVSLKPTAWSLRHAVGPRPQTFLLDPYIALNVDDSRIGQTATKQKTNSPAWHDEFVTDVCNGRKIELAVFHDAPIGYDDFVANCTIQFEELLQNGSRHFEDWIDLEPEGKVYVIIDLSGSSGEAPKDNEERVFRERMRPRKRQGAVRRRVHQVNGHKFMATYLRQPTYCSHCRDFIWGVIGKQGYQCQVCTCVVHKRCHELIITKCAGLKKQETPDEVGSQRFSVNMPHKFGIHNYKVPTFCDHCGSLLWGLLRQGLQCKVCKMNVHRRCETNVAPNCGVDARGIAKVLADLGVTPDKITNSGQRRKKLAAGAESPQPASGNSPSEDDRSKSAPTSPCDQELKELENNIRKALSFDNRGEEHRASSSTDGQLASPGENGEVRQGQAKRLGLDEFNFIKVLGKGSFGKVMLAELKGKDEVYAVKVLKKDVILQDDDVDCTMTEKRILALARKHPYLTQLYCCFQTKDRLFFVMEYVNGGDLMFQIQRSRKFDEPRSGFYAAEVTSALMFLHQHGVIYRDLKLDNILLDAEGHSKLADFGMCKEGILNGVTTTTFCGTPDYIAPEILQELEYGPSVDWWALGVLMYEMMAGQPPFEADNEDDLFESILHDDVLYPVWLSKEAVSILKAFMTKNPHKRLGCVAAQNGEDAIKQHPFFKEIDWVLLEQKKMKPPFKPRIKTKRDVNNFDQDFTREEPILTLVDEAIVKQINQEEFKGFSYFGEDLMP
Procedure: as §1
Rat heart ventricles were removed from the cannula and homogenized in ice-cold mannitol-sucrose buffer (210 mM mannitol, 70 mM sucrose, 5 mM MOPS and 1 mM EDTA containing Sigma Protease Inhibitor 1 and Sigma Phosphatase Inhibitors 1 and 2, added per manufacturer's instructions) The resultant homogenate was filtered through gauze and centrifuged at 700 g for 5 minutes to pellet nuclei and cellular debris. […] Mitochondrial purity was also assessed by electron microscopic analysis. Protein concentration was determined by Bradford assay and 10 μg protein separated on a 12% SDS-PAGE gel and transferred to nitrocellulose. PKC translocation was measured using antibodies raised against εPKC and δPKC with mitochondrial (ANT) and cytosolic (GAPDH) markers used to ensure equal sample loading of the mitochondrial and cytosolic fractions, respectively. […]
During reperfusion, ischemia-induced cell damage was determined by measuring the activity of creatine phosphokinase (CPK) in the coronary perfusate, carried out using a standard assay kit (Equal Diagnostics, CT, USA). […] Translocation of εPKC and the related isoform δPKC to the mitochondria and plasma membrane was determined by western blotting using εPKC and δPKC antibodies (Santa Cruz Biotechnology) (FIG. 5C). […]

δPKC = assay: IR-induced mitochondrial translocation of δPKC (western blot of heart mitochondrial fraction); design: species or system rat; conditions: 1 μM ψεHSP90
εPKC and HSP90 = biological target: T2, εPKC and HSP90 (Rattus norvegicus, UniProt P09216); assay: Co-immunoprecipitation of εPKC and HSP90 in heart mitochondrial fraction after IR
T2 construct: 200-500 μg of mitochondrial or cytosolic protein was diluted into 1 ml of IP Lysis Buffer; from tissue; host or cells: Wistar rat heart; mitochondrial (and cytosolic) fraction
T2 sequence (P09216 1-737): T1 sequence (P09216 1-737)
Procedure: Since εPKC and HSP90 are predominately cytosolic proteins, it was expected to observe co-immunoprecipitation of εPKC and HSP90 in the cytosolic fraction following exposure to IR.
200-500 μg of mitochondrial or cytosolic protein was diluted into 1 ml of IP Lysis Buffer (150 mM NaCl, 10 mM Tris-HCl, 5 mM EDTA, 0.1% Triton X-100, pH=7.4, containing Sigma Protease Inhibitor 1 and Sigma Phosphatase Inhibitors 1 and 2). Proteins were incubated with εPKC antibody (2 μg) for 2 hours at 4° C. with inversion mixing. 10 μg of Protein A/G Beads (Santa Cruz Biotechnology) were added and the mixture was incubated overnight at 4° C. with inversion mixing. Beads were then centrifuged, washed 3× in IP Lysis Buffer, then re-suspended in sample buffer. Immunoprecipitated proteins were separated on 10% SDS-PAGE gels. The presence of associated proteins was determined by western blotting using antibodies specific for PKCε HSP90, TOM20 and TIM23. Protein immunoprecipitation was then repeated in reverse (immunoprecipitation with HSP90, TOM20 or TIM23 antibodies followed by western blotting with εPKC antibody). […]

PKCε = biological target: T3, PKCε (Rattus norvegicus, UniProt P09216); assay: PKCε translocation to plasma membrane fraction after IR (western blot); conditions: 1 μM ψεHSP90
T3 construct: Rat heart ventricles were removed from the cannula and homogenized; from tissue; host or cells: Wistar rat heart ventricle; mitochondrial, IMM or plasma membrane fractions
T3 sequence (P09216 1-737): T1 sequence (P09216 1-737)
Procedure: Rat heart ventricles were removed from the cannula and homogenized in ice-cold mannitol-sucrose buffer (210 mM mannitol, 70 mM sucrose, 5 mM MOPS and 1 mM EDTA containing Sigma Protease Inhibitor 1 and Sigma Phosphatase Inhibitors 1 and 2, added per manufacturer's instructions) The resultant homogenate was filtered through gauze and centrifuged at 700 g for 5 minutes to pellet nuclei and cellular debris. The supernatant was centrifuged at 10,000 g to pellet the mitochondrial-enriched fraction and the supernatant from this fraction centrifuged at 100,000 g to pellet the plasma membrane fraction. […] Mitochondrial purity was also assessed by electron microscopic analysis. Protein concentration was determined by Bradford assay and 10 μg protein separated on a 12% SDS-PAGE gel and transferred to nitrocellulose. PKC translocation was measured using antibodies raised against εPKC and δPKC with mitochondrial (ANT) and cytosolic (GAPDH) markers used to ensure equal sample loading of the mitochondrial and cytosolic fractions, respectively. Densitometry was performed using Image J software (NIH).
During reperfusion, ischemia-induced cell damage was determined by measuring the activity of creatine phosphokinase (CPK) in the coronary perfusate, carried out using a standard assay kit (Equal Diagnostics, CT, USA). […]

recombinant human εPKC = biological target: T4, recombinant human εPKC (Homo sapiens, UniProt Q02156); assay: In vitro mitochondrial translocation assay, recombinant GST-εPKC with isolated rat cardiac mitochondria; assay type: biochemical; conditions: for mitochondrial translocation of εPKC in the absence of phospholipids (PS/DAG): 1 μM ψεHSP90, hydrogen peroxide present, no PS/DAG, FIG. 6B lane 5
T4 construct: purchased Cell Signaling Technology
T4 sequence (Q02156 1-737): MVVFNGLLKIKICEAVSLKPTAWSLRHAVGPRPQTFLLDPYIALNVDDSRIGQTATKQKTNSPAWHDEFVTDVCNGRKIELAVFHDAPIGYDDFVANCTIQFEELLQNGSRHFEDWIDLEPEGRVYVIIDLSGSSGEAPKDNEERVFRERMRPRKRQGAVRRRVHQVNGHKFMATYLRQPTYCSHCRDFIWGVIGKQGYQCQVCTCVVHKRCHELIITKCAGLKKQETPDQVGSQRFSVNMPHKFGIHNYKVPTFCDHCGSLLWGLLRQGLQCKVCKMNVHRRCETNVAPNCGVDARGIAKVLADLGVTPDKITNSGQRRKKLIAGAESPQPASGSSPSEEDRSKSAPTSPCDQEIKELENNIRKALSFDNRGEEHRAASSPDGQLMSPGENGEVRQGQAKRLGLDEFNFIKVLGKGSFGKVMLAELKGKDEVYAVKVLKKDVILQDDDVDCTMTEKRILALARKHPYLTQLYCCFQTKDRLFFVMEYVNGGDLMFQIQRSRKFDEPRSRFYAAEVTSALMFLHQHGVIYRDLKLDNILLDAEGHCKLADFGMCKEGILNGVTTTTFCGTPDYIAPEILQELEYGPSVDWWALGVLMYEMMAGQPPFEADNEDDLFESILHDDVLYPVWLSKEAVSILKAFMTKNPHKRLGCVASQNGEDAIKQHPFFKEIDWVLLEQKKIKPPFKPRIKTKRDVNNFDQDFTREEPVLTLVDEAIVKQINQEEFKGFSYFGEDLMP
Procedure: An in vitro approach was used to identify cellular components that were important for εPKC translocation to the mitochondria. As described in Example 5, mitochondria were isolated from normoxic hearts and incubated for 20 minutes at 37° C. with purified recombinant GST-tagged εPKC (Cell Signaling Technology Inc,), which was pretreated by different combinations of PKC activation components including phospholipids and hydrogen peroxide (H2O2) in the absence (FIG. 6A) and presence (FIG. 6B) of the ψεHSP90 peptide. Following incubation of PKCε with its activation components, mitochondria were introduced into the εPKC mixture and incubated for an additional 20 minutes, after which the mitochondria were pelleted by centrifugation and then probed with antibodies selective for PKCε and the mitochondrial marker VDAC The use of GST-tagged εPKC allowed the distinction, based on size, between exogenous GST-εPKC and native/endogenous εPKC present in the mitochondria prior to treatment. Rabbit reticulocyte lysate (RRL) was used as an exogenous source of HSP90 as described previously (Scherrer et al., Biochemistry. 1992. 31:7325-7329)
Activation of recombinant εPKC was performed as described in the art. Briefly, recombinant εPKC (5 μl of 10 ng/μl stock) (Cell Signaling Technology) was aliquoted into assay buffer (20 mM Tris HCl, 50 mM KCl, 1 mM DTT, 0.1 mg/ml BSA Mg^2+ (5 mM), ATP (100 μM), pH 7.4) containing different combinations of activation factors including phosphatidylserine/diacylglycerol (1 mM), H2O2 (50 μM) or ψεHSP90 (1 μm) in a final volume of 50 μl . εPKC was activated by incubation in assay buffer at 37° C. for 20 min. Rabbit reticulocyte lysate (RRL) (10 μl) was added to the incubation mixture for 10 minutes after εPKC activation. […] Mitochondria were then spun at 10,000 g×10 min, resuspended in 50 μl sample loading buffer and mitochondrial εPKC levels measured by western blotting using VDAC as a loading control. […]

Row | Substance | effect on IR-induced CPK release / IR injury [1] | effect on IR-induced CPK release / IR injury ([1]; listed as corresponding sequence from the HSP90 protein) | reduction of IR-induced CPK release ([1]; 10 min before ischemia and first 10 min of reperfusion, versus IR alone, p<0.05) [%] | effect on mitochondrial translocation of PKCε after IR (εPKC; 1 μM ψεHSP90) | higher mitochondrial PKCε levels versus IR group untreated with peptide (εPKC; IR in the presence of 1 μm ψεHSP90 peptide) [%] | effect on PKCδ association with the mitochondria after IR (δPKC) | effect on IR-induced physical association of PKCε and HSP90 at the mitochondria (εPKC and HSP90; 1 μM ψεHSP90) | increase in IR-induced physical interaction between HSP90 and PKCε (co-immunoprecipitation) (εPKC and HSP90; 1 μM ψεHSP90, mitochondrial fraction) [fold] | effect on PKCε translocation to the plasma membrane (PKCε) | mitochondrial translocation of εPKC in the absence of phospholipids (PS/DAG) (recombinant human εPKC) | mitochondrial translocation of εPKC in the absence of phospholipids (PS/DAG) (recombinant human εPKC; listed as ψεHSP90) | effect on association/translocation of εPKC with isolated mitochondria in vitro (recombinant human εPKC; 1 μM ψεHSP90, FIG. 6B lanes 2-5)
1 | PEDEEEK (not fully specified) | no statistical effect | no effect |  |  |  |  |  |  |  |  |  | 
2 | PKDNEER (not fully specified) [ψεHSP90 peptide] | significantly reduced |  | 47 | enhanced | ~20 | not altered; also recorded: without effect | increased | ~4 | did not affect | resulted in translocation of εPKC | sufficient to induce | increased
